Experimental findings from US20160090640A1 are described below.

The target of this experiment is GII.4 norovirus. Description: capture on a column of Con A-linked resin, real-time RT-PCR; the dilution applied held about 3.39 copies/µL; no Ct value in the non-Con A-linked resin. (In general: Real-time PCR tracks product formation cycle by cycle.)

Substance “Concanavalin A (Con A) (Sigma-Aldrich, USA) (from UniProt P02866 30-281)” had a virus concentrated through the Con A-linked resin column of 2.16 copies/µL.
